Columns and labels:
[1] = tested on: RNA polymerase III (Homo sapiens); conditions: 90 min IVT from 100 nM coligo; 6 mM MgCl2; abolished by 120 ug/ml alpha-amanitin
[2] = tested on: RNA polymerase III (Homo sapiens); conditions: HEK293T WCE transcription; mainly single round
[3] = tested on: TS2126 RNA ligase 1 (Bacteriophage TS2126); conditions: 5' phosphate; splintless circularization, 2.5 mM MnCl2, 50 uM ATP, 60 C, 2 h
RNA polymerase = RNA polymerase (Escherichia coli, UniProt P0A7Z4;P0A8V2;P0A8T7;P0A800 P0A7Z4:1-329,P0A8V2:1-1342,P0A8T7:1-1407,P0A800:2-91); experiment: in vitro transcription processivity, 10 mM MgCl2, 37 C; conditions: tags: USB; chain copies: 2,1,1,1; circular, stem-loop
Source text: (§1) Chem. Soc. 117, 7818-7819 (1995)) (FIG. 5b, gel region “a”). As a relative measure of transcriptional processivity, we calculated the ratio of the radioactivity incorporated in the rolling circle transcripts (FIG. 5b, gel region “a” in lanes 3, 6, 9) to the sum of all shorter transcripts (gel region “b”). Lower a/b ratios indicate lower processivity. […] Thus, the ability to initiate promoterless transcription on coligo templates appears to have been retained during RNAP evolution, while the processivity needed for RCT appears to have been lost.
(§2) In vitro transcription (IVT). IVT using WCE, uniform labeling with [α-³²P]-UTP and the linear or circular (coligo) templates was performed as follows. A typical 20 μl reaction contained 25 μg total WCE protein, 20 units RNase inhibitor (Promega) 1.25 mM each ATP, CTP, GTP, 0.2 mM UTP, (except FIG. 5b, which contained 1.25 mM each NTP), ˜2 μCi [α-³²P]-UTP, 40 mM Tris-HCl pH 7.9, 6 mM MgCl₂, 10 mM DTT, 2 mM spermidine, 100 μM NaCl); 100 nM template unless otherwise indicated. IVT using E. coli RNA polymerase (USB) was carried out in 40 mM Tris-HCl, pH 8.0, 10 mM MgCl₂, 5 mM DTT, 50 mM KCl, 50 μg/ml BSA), 1 μM coligo template, 1.25 mM NTP, ˜2 μCi [α-³²P]-UTP, 1 unit/μl RNAse inhibitor. […] Images and quantitation were performed using MD ImageQuant software. […]

RNA polymerase II = RNA polymerase II (UniProt P04050;P08518;P16370;P20433;P20434;P20435;P34087;P20436;P27999;P22139;P38902;P40 …); experiment: in vitro transcription processivity, 1 uM template, 37 C; conditions: tags: yeast RNAP II from D. Bushnell and R. Kornberg; circular, stem-loop
Source text: as §1, §2

Chain of RNA polymerase (P0A7Z4 whole entry, chain 1 of 4): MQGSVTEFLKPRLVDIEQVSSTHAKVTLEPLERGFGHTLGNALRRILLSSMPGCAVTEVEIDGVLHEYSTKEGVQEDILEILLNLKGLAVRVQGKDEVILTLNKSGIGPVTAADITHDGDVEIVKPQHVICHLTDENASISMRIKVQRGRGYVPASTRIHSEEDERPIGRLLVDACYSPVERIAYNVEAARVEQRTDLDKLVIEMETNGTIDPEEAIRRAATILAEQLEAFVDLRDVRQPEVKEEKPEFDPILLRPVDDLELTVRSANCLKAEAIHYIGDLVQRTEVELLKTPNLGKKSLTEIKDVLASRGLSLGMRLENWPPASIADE
Chain of RNA polymerase (P0A8V2 whole entry, chain 2 of 4): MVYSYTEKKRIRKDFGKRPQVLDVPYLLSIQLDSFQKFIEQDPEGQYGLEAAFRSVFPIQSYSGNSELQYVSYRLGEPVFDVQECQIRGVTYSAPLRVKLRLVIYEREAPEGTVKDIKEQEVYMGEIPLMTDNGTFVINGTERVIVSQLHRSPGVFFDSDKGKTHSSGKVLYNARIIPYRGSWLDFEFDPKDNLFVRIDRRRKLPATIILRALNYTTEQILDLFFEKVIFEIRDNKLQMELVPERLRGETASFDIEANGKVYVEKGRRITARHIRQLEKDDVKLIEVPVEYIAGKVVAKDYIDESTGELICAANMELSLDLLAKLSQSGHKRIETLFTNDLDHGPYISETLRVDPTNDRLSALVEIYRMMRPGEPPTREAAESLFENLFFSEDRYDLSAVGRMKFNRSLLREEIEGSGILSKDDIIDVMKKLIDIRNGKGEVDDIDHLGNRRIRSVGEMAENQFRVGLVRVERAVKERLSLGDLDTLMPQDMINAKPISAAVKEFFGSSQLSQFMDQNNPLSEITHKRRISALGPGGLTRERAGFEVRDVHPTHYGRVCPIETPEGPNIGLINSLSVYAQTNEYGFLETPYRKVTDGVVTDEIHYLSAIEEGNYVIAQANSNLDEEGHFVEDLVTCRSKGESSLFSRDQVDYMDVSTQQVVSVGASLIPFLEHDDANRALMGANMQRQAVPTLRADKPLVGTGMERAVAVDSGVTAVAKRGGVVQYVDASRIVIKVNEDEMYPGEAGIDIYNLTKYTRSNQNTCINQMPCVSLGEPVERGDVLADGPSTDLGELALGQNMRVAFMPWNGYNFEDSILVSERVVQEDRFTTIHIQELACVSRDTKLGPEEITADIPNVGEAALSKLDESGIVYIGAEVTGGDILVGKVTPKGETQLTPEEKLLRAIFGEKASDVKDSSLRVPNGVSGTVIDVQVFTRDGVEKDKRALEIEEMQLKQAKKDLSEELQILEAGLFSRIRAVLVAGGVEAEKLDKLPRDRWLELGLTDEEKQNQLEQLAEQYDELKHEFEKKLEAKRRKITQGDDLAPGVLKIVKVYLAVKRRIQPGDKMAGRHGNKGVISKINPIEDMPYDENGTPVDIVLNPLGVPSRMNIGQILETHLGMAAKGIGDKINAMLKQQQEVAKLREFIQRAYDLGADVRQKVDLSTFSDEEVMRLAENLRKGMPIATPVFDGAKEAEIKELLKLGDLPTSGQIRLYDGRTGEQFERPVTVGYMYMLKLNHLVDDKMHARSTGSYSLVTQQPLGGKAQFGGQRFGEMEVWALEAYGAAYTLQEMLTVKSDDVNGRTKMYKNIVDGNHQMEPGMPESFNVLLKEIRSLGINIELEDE
Chain of RNA polymerase (P0A8T7 whole entry, chain 3 of 4): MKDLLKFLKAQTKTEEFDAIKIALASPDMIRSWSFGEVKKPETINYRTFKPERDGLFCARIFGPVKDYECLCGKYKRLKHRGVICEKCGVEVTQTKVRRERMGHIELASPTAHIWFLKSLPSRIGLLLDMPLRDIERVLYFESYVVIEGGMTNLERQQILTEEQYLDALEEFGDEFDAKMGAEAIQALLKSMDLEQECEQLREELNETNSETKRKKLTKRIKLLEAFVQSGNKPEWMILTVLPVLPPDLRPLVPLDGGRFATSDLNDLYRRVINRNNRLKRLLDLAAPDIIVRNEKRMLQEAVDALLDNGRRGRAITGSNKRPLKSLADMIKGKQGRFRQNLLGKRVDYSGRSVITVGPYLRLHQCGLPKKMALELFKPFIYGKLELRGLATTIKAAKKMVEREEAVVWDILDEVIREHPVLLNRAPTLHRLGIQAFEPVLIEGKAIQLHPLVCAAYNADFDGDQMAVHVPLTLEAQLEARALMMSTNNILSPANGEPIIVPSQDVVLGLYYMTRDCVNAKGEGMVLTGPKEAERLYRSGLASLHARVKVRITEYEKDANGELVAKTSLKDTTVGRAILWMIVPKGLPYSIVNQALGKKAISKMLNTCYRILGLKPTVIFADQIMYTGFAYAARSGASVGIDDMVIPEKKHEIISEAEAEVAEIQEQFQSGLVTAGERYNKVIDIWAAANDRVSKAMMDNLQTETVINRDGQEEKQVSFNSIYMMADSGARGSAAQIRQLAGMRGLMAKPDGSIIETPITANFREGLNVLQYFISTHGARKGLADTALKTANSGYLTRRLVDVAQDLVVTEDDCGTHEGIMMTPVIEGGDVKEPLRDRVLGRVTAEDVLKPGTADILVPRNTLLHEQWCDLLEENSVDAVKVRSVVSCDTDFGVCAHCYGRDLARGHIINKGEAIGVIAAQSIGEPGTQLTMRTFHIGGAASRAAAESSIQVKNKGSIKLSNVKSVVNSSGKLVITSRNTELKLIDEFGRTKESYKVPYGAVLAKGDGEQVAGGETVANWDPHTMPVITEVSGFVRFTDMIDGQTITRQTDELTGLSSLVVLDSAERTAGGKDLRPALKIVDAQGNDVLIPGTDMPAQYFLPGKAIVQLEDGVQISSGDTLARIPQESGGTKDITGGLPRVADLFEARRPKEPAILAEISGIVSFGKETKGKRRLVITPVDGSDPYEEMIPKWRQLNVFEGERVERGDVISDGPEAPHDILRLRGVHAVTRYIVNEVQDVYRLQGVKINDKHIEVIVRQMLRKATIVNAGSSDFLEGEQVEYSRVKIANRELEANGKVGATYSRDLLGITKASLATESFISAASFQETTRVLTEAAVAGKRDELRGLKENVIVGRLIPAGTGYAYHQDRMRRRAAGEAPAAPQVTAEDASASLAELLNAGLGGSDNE
Chain of RNA polymerase (P0A800 2-91, chain 4 of 4): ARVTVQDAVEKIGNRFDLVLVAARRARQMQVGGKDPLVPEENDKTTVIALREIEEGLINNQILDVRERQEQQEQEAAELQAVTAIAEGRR

Molecule “CTCAGATCTGCCTGCAACTATGCAAAACTAACAGAGGACTGCAAACAAAAACTAGAAGGAAATAGCAGGCCACCATCAGTTTTGCATAGATTTGCACAACGGCAGAGAGCTCCCAGG [coligo 19aTAR (19am)]” has an activity (nM transcript) [1] of 0.6.

Work on “TTGCCTAGCAGTAGCTATTTAGTGTGATAATGGCGTTTGATAGTTTAGACACAAACACCATTGTCACACTCCACAGCTCTGCTAAGGAA [coligo 122]” yielded a binding signal (RCT/short transcript ratio) [2] of 0.01.

“CTCAGATCTGCCTGCAACTATGCAAAACTAACAGAGGACTGCAAACAAAAACTAGAAGGAAATAGCAGGCCACCATCAGTTTTGCATAGATTTGCACAACGGCAGAGAGCTCCCAGG [linear 19aTAR]” was tested, and the activity (% cyclization) [3] was 73.

B1: coligo 122 (structured_DNA)
DNA: TTGCCTAGCAGTAGCTATTTAGTGTGATAATGGCGTTTGATAGTTTAGACACAAACACCATTGTCACACTCCACAGCTCTGCTAAGGAA
With B1 the binding signal (RNA polymerase) was 2.3 RCT/short transcript ratio and the “transcriptional processivity (rolling-circle/short transcript ratio)” value (RNA polymerase II) was 0.3 RCT/short transcript ratio.

— US20130245102, “NOVEL DNA TEMPLATES FOR SMALL RNA PRODUCTION IN MAMMALIAN CELLS” (Research Foundation of the City University of New York, published 2013)
